This passage reports protein stability index results from the supplement of paper PMC10567573.

B1: ZBTB22 (parent)
chain: AVLAASSPYFHDQVLLKGMTSISL
B2: MLL5 (parent)
chain: DCMGIDRQHIPDTYLCERCQPRNL
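Note: lentivirally expressed fusions sorted by FACS into six bins by GFP to DsRed ratio, PSI derived from sequencing read proportions per bin multiplied by bin number.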

Variants of B1 are the subject of one data set. Kind of data set: protein stability index of a GFP-peptide fusion (GPS, HEK-293T) (PSI 1-6); higher = more stable. The settings on record: c terminus: a fixed tail appended.
On to ACLAASSPYFHDQVLLKGMTSISL [V2C], for which the protein stability index is 1.04.

Turning to AHLAASSPYFHDQVLLKGMTSISL [V2H], the protein stability index was determined as 2.52. For AILAASSPYFHDQVLLKGMTSISL [V2I], the protein stability index is 2.75.

In the case of ATLAASSPYFHDQVLLKGMTSISL [V2T], the protein stability index was found to be 1.45. Consider AWLAASSPYFHDQVLLKGMTSISL [V2W], for which the protein stability index turned out to be 1.79. As to ADLAASSPYFHDQVLLKGMTSISL [V2D], the protein stability index was 2.17. For the variant ANLAASSPYFHDQVLLKGMTSISL [V2N], the protein stability index came out at 1.63. On to AQLAASSPYFHDQVLLKGMTSISL [V2Q], for which the protein stability index worked out at 1.62. The same measure, in the same setting: in the case of AKLAASSPYFHDQVLLKGMTSISL [V2K] it was 1.97; in that of AELAASSPYFHDQVLLKGMTSISL [V2E], 1.41; in that of ASLAASSPYFHDQVLLKGMTSISL [V2S], 2.33. As for ARLAASSPYFHDQVLLKGMTSISL [V2R], the protein stability index was found to be 2.15.

Turning to AVLAAESPYFHDQVLLKGMTSISL [S6E], the protein stability index was found to be 1.41. With AVLAADSPYFHDQVLLKGMTSISL [S6D], the protein stability index stood at 2.61.

In the case of AVLAAKSPYFHDQVLLKGMTSISL [S6K], the protein stability index was determined as 2.05. Turning to AVLAARSPYFHDQVLLKGMTSISL [S6R], the protein stability index was 1.67. For AVLAAQSPYFHDQVLLKGMTSISL [S6Q], the protein stability index turned out to be 3.02. As to AVLAANSPYFHDQVLLKGMTSISL [S6N], the protein stability index was 3.54.

As to AVLAAGSPYFHDQVLLKGMTSISL [S6G], the protein stability index stood at 2.75. AVLAAPSPYFHDQVLLKGMTSISL [S6P]: the protein stability index was 2.23. With AVLAAISPYFHDQVLLKGMTSISL [S6I], the protein stability index stood at 1.97. AVLAAWSPYFHDQVLLKGMTSISL [S6W]: the protein stability index turned out to be 3.82. On the same count and under the same terms, as for AVLAATSPYFHDQVLLKGMTSISL [S6T], the figure is 2.4; as for IVLAASSPYFHDQVLLKGMTSISL [A1I], 2.99; as for QVLAASSPYFHDQVLLKGMTSISL [A1Q], 2.39. Turning to CVLAASSPYFHDQVLLKGMTSISL [A1C], the protein stability index was determined as 3.85. Turning to TVLAASSPYFHDQVLLKGMTSISL [A1T], the protein stability index came to 4.21.

Regarding EVLAASSPYFHDQVLLKGMTSISL [A1E], the protein stability index is 4.15. As to YVLAASSPYFHDQVLLKGMTSISL [A1Y], the protein stability index worked out at 2.9.

On to NVLAASSPYFHDQVLLKGMTSISL [A1N], for which the protein stability index turned out to be 2.3.

Regarding KVLAASSPYFHDQVLLKGMTSISL [A1K], the protein stability index worked out at 3.83. As to HVLAASSPYFHDQVLLKGMTSISL [A1H], the protein stability index was determined as 4.3. For MVLAASSPYFHDQVLLKGMTSISL [A1M], the protein stability index turned out to be 2.57.

Turning to AVLIASSPYFHDQVLLKGMTSISL [A4I], the protein stability index is 2.48. Turning to AVLFASSPYFHDQVLLKGMTSISL [A4F], the protein stability index was 2.24. On the same count and under the same terms, as for AVLPASSPYFHDQVLLKGMTSISL [A4P], the figure is 1.05; as for AVLSASSPYFHDQVLLKGMTSISL [A4S], 1.88; as for AVLHASSPYFHDQVLLKGMTSISL [A4H], 4.29. For AVLEASSPYFHDQVLLKGMTSISL [A4E], the protein stability index was determined as 2.48.

For the variant AVLKASSPYFHDQVLLKGMTSISL [A4K], the protein stability index was 2.92. For the variant AVLMASSPYFHDQVLLKGMTSISL [A4M], the protein stability index was 2.04.

Take AVLGASSPYFHDQVLLKGMTSISL [A4G]: the protein stability index is 1.92. For the variant AVLYASSPYFHDQVLLKGMTSISL [A4Y], the protein stability index came to 2. With AVLDASSPYFHDQVLLKGMTSISL [A4D], the protein stability index was 1.15. Still for that read-out and setting: in the case of AVLLASSPYFHDQVLLKGMTSISL [A4L] it was 2.9; in that of AVLAASSPDFHDQVLLKGMTSISL [Y9D], 2.17. Consider AVLAASSPAFHDQVLLKGMTSISL [Y9A], for which the protein stability index came to 1.37. Regarding AVNAASSPYFHDQVLLKGMTSISL [L3N], the protein stability index is 2.38. With AVMAASSPYFHDQVLLKGMTSISL [L3M], the protein stability index amounted to 3.26. With AVAAASSPYFHDQVLLKGMTSISL [L3A], the protein stability index was 2.48. The same measure, in the same setting: as for AVIAASSPYFHDQVLLKGMTSISL [L3I], the figure is 3.32; as for AVTAASSPYFHDQVLLKGMTSISL [L3T], 2.38. As for AVSAASSPYFHDQVLLKGMTSISL [L3S], the protein stability index turned out to be 1.45. AVEAASSPYFHDQVLLKGMTSISL [L3E]: the protein stability index was 2.04.

In the case of AVKAASSPYFHDQVLLKGMTSISL [L3K], the protein stability index turned out to be 1.64. The same measure, in the same setting: as for AVRAASSPYFHDQVLLKGMTSISL [L3R], the figure is 1.45. With AVPAASSPYFHDQVLLKGMTSISL [L3P], the protein stability index turned out to be 3.11. In the case of AVHAASSPYFHDQVLLKGMTSISL [L3H], the protein stability index amounted to 2.22. Still for that read-out and setting: in the case of AVCAASSPYFHDQVLLKGMTSISL [L3C] it was 2.92; in that of AVQAASSPYFHDQVLLKGMTSISL [L3Q], 1.93; in that of AVLAKSSPYFHDQVLLKGMTSISL [A5K], 3.55.

With AVLAYSSPYFHDQVLLKGMTSISL [A5Y], the protein stability index turned out to be 2.44. In the case of AVLAWSSPYFHDQVLLKGMTSISL [A5W], the protein stability index was 1.88. Consider AVLANSSPYFHDQVLLKGMTSISL [A5N], for which the protein stability index stood at 2.66. For AVLAQSSPYFHDQVLLKGMTSISL [A5Q], the protein stability index was 3.23. AVLAHSSPYFHDQVLLKGMTSISL [A5H]: the protein stability index was 2.04.

Take AVLATSSPYFHDQVLLKGMTSISL [A5T]: the protein stability index was found to be 3.75.

Take AVLALSSPYFHDQVLLKGMTSISL [A5L]: the protein stability index amounted to 2.21.

As for AVLAFSSPYFHDQVLLKGMTSISL [A5F], the protein stability index was 2.98.

As to AVLASSSPYFHDQVLLKGMTSISL [A5S], the protein stability index worked out at 2.6. On to AVLAESSPYFHDQVLLKGMTSISL [A5E], for which the protein stability index turned out to be 1.55. Regarding AVLAASSIYFHDQVLLKGMTSISL [P8I], the protein stability index worked out at 2.73.

With AVLAASSFYFHDQVLLKGMTSISL [P8F], the protein stability index amounted to 2.55. With AVLAASSRYFHDQVLLKGMTSISL [P8R], the protein stability index came out at 4.82.

Regarding AVLAASSGYFHDQVLLKGMTSISL [P8G], the protein stability index amounted to 3.22.

For the variant AVLAASSLYFHDQVLLKGMTSISL [P8L], the protein stability index stood at 3.83. On to AVLAASSAYFHDQVLLKGMTSISL [P8A], for which the protein stability index turned out to be 2.55. Regarding AVLAASSDYFHDQVLLKGMTSISL [P8D], the protein stability index amounted to 2.5. Take AVLAASSHYFHDQVLLKGMTSISL [P8H]: the protein stability index is 2.88. For AVLAASWPYFHDQVLLKGMTSISL [S7W], the protein stability index was 2. As to AVLAASEPYFHDQVLLKGMTSISL [S7E], the protein stability index was determined as 2.33.

For AVLAASIPYFHDQVLLKGMTSISL [S7I], the protein stability index came to 4.5.

For the variant AVLAASDPYFHDQVLLKGMTSISL [S7D], the protein stability index is 3.38.

Turning to AVLAASLPYFHDQVLLKGMTSISL [S7L], the protein stability index was 2.91. Take AVLAASYPYFHDQVLLKGMTSISL [S7Y]: the protein stability index came to 1.47. For AVLAASTPYFHDQVLLKGMTSISL [S7T], the protein stability index came to 3.75. The same measure, in the same setting: in the case of AVLAASVPYFHDQVLLKGMTSISL [S7V] it was 2.11. AVLAASHPYFHDQVLLKGMTSISL [S7H]: the protein stability index was 2.8.

Another data set covers variants of B2. The data set is described as above. As to conditions: c terminus: a fixed tail appended.
As for DCMGIDRQHIPDTYLCERSQPRNL [C19S], the protein stability index came out at 3.85.

For DCMGIDRQHIPDTYLCERVQPRNL [C19V], the protein stability index turned out to be 2.65.

As for DCMGIDRQHIPDTYLCERRQPRNL [C19R], the protein stability index amounted to 4.24. Consider DCMGIDRQHIPDTYLCERYQPRNL [C19Y], for which the protein stability index is 2.8. Same read-out and setting: in the case of DCMGIDRQHIPDTYLCERWQPRNL [C19W] it was 2.63. Same read-out and setting: as for DCMGIDRQHIPDTYLCERTQPRNL [C19T], the figure is 4.09.
